One assay concerns the target T1, mouse CLCF1 (mCLCF1) (mouse, UniProt Q9QZM3 28-225, limits assumed).
T1 construct: also called serum CLCF1 (mouse)
T1 sequence (looked up): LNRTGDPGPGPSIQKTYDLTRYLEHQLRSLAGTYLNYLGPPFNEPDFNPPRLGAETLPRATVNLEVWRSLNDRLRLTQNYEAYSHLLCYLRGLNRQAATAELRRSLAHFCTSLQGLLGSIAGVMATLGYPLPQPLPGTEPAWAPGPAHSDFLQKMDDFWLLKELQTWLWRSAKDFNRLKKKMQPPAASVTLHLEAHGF
Briefly: ELISA.

Assay [1] has as its target T2, recombinantly produced ciliary neurotrophic factor (CNTF) (UniProt P26441 1-200, limits assumed).
T2 sequence (looked up): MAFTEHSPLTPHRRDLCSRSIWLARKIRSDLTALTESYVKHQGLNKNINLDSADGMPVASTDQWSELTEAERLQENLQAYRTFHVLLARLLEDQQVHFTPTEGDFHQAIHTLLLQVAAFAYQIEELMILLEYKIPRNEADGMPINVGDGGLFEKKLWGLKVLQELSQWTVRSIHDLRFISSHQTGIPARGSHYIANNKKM
Kind of assay: ELISA.

Assay [2] concerns the target T3, recombinant human cardiotrophin-like cytokine factor 1 (CLCF1) (human, UniProt Q9UBD9 28-225, limits assumed).
T3 construct: also called hCLCF1
T3 sequence (looked up): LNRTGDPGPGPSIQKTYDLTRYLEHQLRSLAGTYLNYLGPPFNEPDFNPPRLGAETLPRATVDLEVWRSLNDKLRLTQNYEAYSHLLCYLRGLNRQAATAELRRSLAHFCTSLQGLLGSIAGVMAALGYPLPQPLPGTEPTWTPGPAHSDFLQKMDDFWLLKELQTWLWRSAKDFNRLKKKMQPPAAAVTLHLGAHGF
Briefly: ELISA: incubated with CLCF1 4 h at room temperature, complex captured on anti-mouse Fc plate, detected with rabbit anti-CLCF1.
Excerpt: Then the complexes were captured using microtiter plates coated with anti-his antibody or anti-mouse Fc antibody. […] The same approach was used to characterize binding interaction with the beta receptors.

B1: eCNTFR-Fc (soluble engineered CNTFR fused to mouse IgG2a Fc) (Fc fusion)
chain: QRHSPQEAPHVQYERLGSDVTLPCGTANWDAAVTWRVNGTDLAPDLLNGSQLVLHGLELGHSGLYACFHRDSWHLRHQVLLHVGLPPQEPVLSCRSNTYPKGFYCSWHLPTPTYIPNTFNVTVLHGSKIMVCEKDPALKNRCHIRYMHLFSPIKHNVSISVSNALGHNATAITFDEFTIVKPDPPENVVARPVPSNPRRLEVTWQTPSTWPDPEFFPLKFFLRYRPLILDQWQHVELSDGTAHTIAAAYAGKEYIIQVAAKDNEFGTWSDWSVAAHATPWTEEPRHLTTEAQAAETTTSTTSSLAPPPTTKICDPGELGSRRLEPRGPTIKPCPPCKCPAPNLLGGPSVFIFPPKIKDVLMISLSPIVTCVVVDVSEDDPDVQISWFVNNVEVHTAQTQTHREDYNSTLRVVSALPIQHQDWMSGKEFKCKVNNKDLPAPIERTISKPKGSVRAPQVYVLPPPEEEMTKKQVTLTCMVTDFMPEDIYVEWTNNGKTELNYKNTEPVLDSDGSYFMYSKLRVEKKNWVERNSYSCSVVHEGLHNHHTTKSFSRTPGK
notes: Made in HEK293; also called Fc fusion eCNTFR; engineered CLCF1 trap
Turning to B1, the binding result with mouse CLCF1 (mCLCF1) was “binds”; in assay [1] it was “no binding”; in assay [2], “binds”.

For the origin of these results see patent US20190359683A1 (Stanford University, published 2019).
